From PMC8346469

Target: homo-oligomeric archaeal chaperonin from Methanococcus maripaludis (MmCpn) (Methanococcus maripaludis)
Experiment: cryo-EM structure; MmCpn 4 uM mixed on ice with 32 uM ATP (1 hexadecamer to 8 ATP), frozen immediately; single-particle reconstruction with D8 symmetry (also C1), 3.9 Å; focused classification of rings and subunits

stoichiometry N: 16 subunits
Substance: homo-oligomeric archaeal chaperonin from Methanococcus maripaludis (MmCpn) (natural protein)
